Results: publication PMC4838342 (Nucleic Acids Research, 2015)

B1: N-300: sNASP truncated at residue 300 (protein, UniProt P49321 1-300, looked up, fragment)
chain: MAMESTATAAVAAELVSADKIEDVPAPSTSADKVESLDVDSEAKKLLGLGQKHLVMGDIPAAVNAFQEAASLLGKKYGETANECGEAFFFYGKSLLELARMENGVLGNALEGVHVEEEEGEKTEDESLVENNDNIDEEAREELREQVYDAMGEKEEAKKTEDKSLAKPETDKEQDSEMEKGGREDMDISKSAEEPQEKVDLTLDWLTETSEEAKGGAAPEGPNEAEVTSGKPEQEVPDAEEEKSVSGTDVQEECREKGGQEKQGEVIVSIEEKPKEVSEEQPVVTLEKQGTAVEVEAESL
modifications: sNASP
B2: N-330: sNASP truncated at residue 330 (protein, UniProt P49321 1-330, looked up, fragment)
chain: MAMESTATAAVAAELVSADKIEDVPAPSTSADKVESLDVDSEAKKLLGLGQKHLVMGDIPAAVNAFQEAASLLGKKYGETANECGEAFFFYGKSLLELARMENGVLGNALEGVHVEEEEGEKTEDESLVENNDNIDEEAREELREQVYDAMGEKEEAKKTEDKSLAKPETDKEQDSEMEKGGREDMDISKSAEEPQEKVDLTLDWLTETSEEAKGGAAPEGPNEAEVTSGKPEQEVPDAEEEKSVSGTDVQEECREKGGQEKQGEVIVSIEEKPKEVSEEQPVVTLEKQGTAVEVEAESLDPTVKPVDVGGDEPEEKVVTSENEAGKAVL
modifications: sNASP

System: MBP H3 116–135
Assay: Pulldown of MBP H3 116–135 by (His)6-sNASP truncations
Assay type: binding
Settings: (His)6-tagged sNASP truncations, SDS-PAGE, Coomassie, western blotting for MBP
Procedure: Protein was eluted in the same buffer with 250 mM imidazole, but without protease inhibitors. The (His)6 tag was cleaved overnight by TEV protease, whilst concomitantly dialysing to 100 mM sodium chloride, 20 mM Tris–HCl pH 8.0, 1 mM EDTA and 5 mM dithiothreitol. Cleaved protein was further purified by ion-exchange using a ResourceQ column (GE Healthcare) before gel filtration chromatography in 200 mM sodium chloride, 20 mM Hepes-KOH pH 7.6 and 1 mM EDTA using a 26/60 Superdex 200 column (GE Healthcare). The purified protein was concentrated and stored in aliquots at −80°C. Homologues, truncations and point mutants of sNASP were expressed and purified using the same method. MBP-H3 peptide fusions were expressed in bacteria and used as whole cell extracts (epitope mapping) or purified over a Dextrin Sepharose column (GE Healthcare) in one-step purification in 0.5 M sodium chloride, 20 mM Hepes-KOH pH 7.6, 1 mM EDTA and 5 mM dithiothreitol. Concentrated protein was dialysed against 200 mM sodium chloride, 20 mM Hepes-KOH, 1 mM EDTA and 5 mM dithiothreitol and stored in aliquots at −80°C.
Mutations were made in the MBP H3 116–135 construct using a mixture of site-direct mutagenesis and oligo ligation. Whole cell extracts were prepared from bacteria and used as inputs for the pulldown experiments with (His)6-sNASP pre-bound to Nickel-NTA beads (GE Healthcare).
A BsNASP mutantsH3 peptide […]
200 A260 M Elution volume (mL) […]
construct used for NMR (A) Various truncations of (His)6-sNASP were tested for their ability to pull down MBP -H3 116-135 ( W T ) or a scrambled peptide (Sc). […]
separated by SDS-PAGE and stained with Coomassie. […]
western blotting for MBP was also carried out. (B) Domain diagrams of truncations shown in A with TPR motifs in green, the acidic loop region in yellow and the predicted capping region in grey. A summar y of the interaction with MBP-H3 116-135 is shown on the right hand side.
Binding Protein; CR, capping region; TPR, tetratricopeptide repeat; cTPR, contiguous TPR; mcTPR, minimum contiguous […]

Molecule | ability to bind / pull down MBP H3 116–135 | ability to bind / pull down MBP H3 116–135 (listed as Truncating sNASP close to TPR4 at residue 300) | ability to bind / pull down MBP H3 116–135 (listed as truncation at residue 330)
B1 | incapable of binding H3 | loss of interaction | 
B2 | binds the H3 C-terminal peptide with affinity similar to the full length |  | retained the interaction
